From US20240352105A1, “COMPOSITIONS AND METHODS FOR NEUTRALIZING ANTIGENS” (PACAGEN, INC, priority 2023, published 2024)
No end group written: not given here.

T1: recombinant His-tagged Der p1 (dust mite, UniProt P08176 99-320, limits assumed)
T1 construct: Recombinant His-tagged protein made by the applicant; also called Der p1-His; Der pl; not shown: His tag
T1 sequence (looked up): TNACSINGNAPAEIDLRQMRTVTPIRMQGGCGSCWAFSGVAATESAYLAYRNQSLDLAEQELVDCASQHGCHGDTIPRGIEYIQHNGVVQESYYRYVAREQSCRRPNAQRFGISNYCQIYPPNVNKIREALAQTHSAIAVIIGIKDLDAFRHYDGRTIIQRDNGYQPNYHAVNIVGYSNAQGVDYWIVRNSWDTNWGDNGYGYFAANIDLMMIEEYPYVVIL


Key:
[1] = target: T2, Fel D1 (Felis catus, UniProt P30438); test: ELISA binding assay of anti-Fel d1 VHH clones on Fel D1 epitopes; design: species or system cat; details: Epitope Recognized AKMTEEDKENALS (SEQ ID NO: 60)
T2 construct: made in house; host or cells: chemically synthesized peptides
Method: 2 microgram per milliliter (μg/mL) target antigen is coated in a 96-well plate and ELISA assay is performed after incubation with candidate VHHs. The binding EC50 of each clone is calculated using Prism GraphPad. The positive control antibody is involved as an internal control.
Four distinct epitopes of Fel D1 were selected to be used for further identification. Peptides were synthesized for the four epitopes for VHH identification.
Isolated VHH clones were further validated by performing an ELISA assay as described in Example 1. Binding results are shown in FIG. 15B-15D for the epitope of SEQ ID NO: 61. Binding results are shown in FIG. 16 for the epitope of SEQ ID NO: 59. Binding results are shown in FIG. 17A-17E for the epitope of SEQ ID NO: 60. Binding results are shown in FIG. 18 for the epitope of SEQ ID NO: 58.

[2] = Thermostability (Tm, Tonset, Tagg) by Nanotemper DSF; assay type: physicochemical; design: key to Tm2 / Tagg / Tm1 / Tm / Tm3 / Tonset / Tonset ø (mean) / Tagg ø (mean): temperatures in °C; details: for Tm: single melting point
Summary of the method: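 Isolated VHH clones were heated from 20 °C to 95 °C at 1 °C/min using DSF. Tm, Tonset and Tagg were derived from the thermal curves. Where several melting transitions occurred, each was reported in order (Tm1, Tm2, etc.).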

[3] = target: T1, recombinant His-tagged Der p1; test: ELISA, Der p1 on plate, biotinylated peptide at 10, duplicate 1
Method: (§1) An ELISA was used to validate identified peptides. Der p1 was bound to the bottom of a plate. Different concentrations of the chosen (biotinylated) peptides were added and then washed. Then, HRP-streptavidin (which binds to the biotin) was added and an OD at 450 nm is measured. Duplicate measurements are separated by commas.

[4] = target: T1, recombinant His-tagged Der p1; test: ELISA, Der p1 on plate, biotinylated peptide at 10, duplicate 2
Method: as §1

[5] = target: T1, recombinant His-tagged Der p1; test: ELISA, Der p1 on plate, biotinylated peptide at 30, duplicate 1
Method: as §1

[6] = target: T1, recombinant His-tagged Der p1; test: ELISA, Der p1 on plate, biotinylated peptide at 30, duplicate 2
Method: as §1

[7] = target: T1, recombinant His-tagged Der p1; test: ELISA, Der p1 on plate, biotinylated peptide at 0.041, duplicate 1
Method: as §1

[8] = target: T1, recombinant His-tagged Der p1; test: ELISA, Der p1 on plate, biotinylated peptide at 0.041, duplicate 2
Method: as §1

[9] = target: T1, recombinant His-tagged Der p1; test: ELISA, Der p1 on plate, biotinylated peptide at 0.123, duplicate 1
Method: as §1

[10] = target: T1, recombinant His-tagged Der p1; test: ELISA, Der p1 on plate, biotinylated peptide at 0.123, duplicate 2
Method: as §1

[11] = target: T1, recombinant His-tagged Der p1; test: ELISA, Der p1 on plate, biotinylated peptide at 0.370, duplicate 1
Method: as §1

[12] = target: T1, recombinant His-tagged Der p1; test: ELISA, Der p1 on plate, biotinylated peptide at 0.370, duplicate 2
Method: as §1

[13] = target: T1, recombinant His-tagged Der p1; test: ELISA, Der p1 on plate, biotinylated peptide at 1.111, duplicate 1
Method: as §1

[14] = target: T1, recombinant His-tagged Der p1; test: ELISA, Der p1 on plate, biotinylated peptide at 1.111, duplicate 2
Method: as §1

[15] = target: T1, recombinant His-tagged Der p1; test: ELISA, Der p1 on plate, biotinylated peptide at 3.333, duplicate 1
Method: as §1

[16] = target: T1, recombinant His-tagged Der p1; test: ELISA, Der p1 on plate, biotinylated peptide at 3.333, duplicate 2
Method: as §1

[17] = Average of two replicates, anti-Fel d1 VHH
[18] = Average of two replicates, anti-Fel d1 VHH, in °C (unit assumed)
[19] = Replicate 1, in °C (unit assumed)
[20] = Replicate 2, in °C (unit assumed)
[21] = anti-Fel d1 VHH, in °C (unit assumed)

Molecule | EC50 [1] [µg/mL] | Tagg ø (mean) [2, 17] | Tonset ø (mean) [2, 17] | Tagg ([2]; Replicate 1) | Tonset ([2]; Replicate 1) | Tagg ([2]; Replicate 2) | OD450 [3] [OD450] | OD450 [4] [OD450] | OD450 [5] [OD450] | OD450 [6] [OD450] | OD450 [7] [OD450] | OD450 [8] [OD450] | OD450 [9] [OD450] | OD450 [10] [OD450] | OD450 [11] [OD450] | OD450 [12] [OD450] | OD450 [13] [OD450] | OD450 [14] [OD450] | OD450 [15] [OD450] | OD450 [16] [OD450] | other results
SDAB22110-4-3-E05: anti-Fel d1 VHH clone, SEQ ID NO: 55 (protein) VHH: QVQLVESGGGLVQPGGSLRLSCVGSGFTFSQYAMRWYRQVPGKARELVAAISRSGDFMYYADSVKGRFTISRDNVKSAVILQMNSLKPEDTAVYYCYGQATISDTLWGQGTQVTVSS | 1.719 | 40.93 | 35.67 | 40.93 | 35.61 | 40.93 | – | – | – | – | – | – | – | – | – | – | – | – | – | – | Tm ø (mean), first melting point (Tm1) [2, 18]: 46.83; Tm, first melting point (Tm1) [2, 19]: 47.02; Tonset ([2]; Replicate 2): 35.73; Tm, first melting point (Tm1) [2, 20]: 46.64; Tagg ([2]; anti-Fel d1 VHH): 31.74; aggregates ([2]; anti-Fel d1 VHH): Possible; Tm1 ([2]; anti-Fel d1 VHH, first melting point, in °C (unit assumed)): 37.85; Tm2 ([2]; anti-Fel d1 VHH, second melting point, in °C (unit assumed)): 47.65; Tm3 ([2]; anti-Fel d1 VHH, third melting point, in °C (unit assumed)): 62.39
HSGPECG (also: biotinylated, site not given here, 7-amino acid peptide from a phage display library) [SDAB22110-2-D3] | – | – | – | – | – | – | 3.55 | 3.57 | 4.1 | 4.13 | 0.468 | 0.463 | 0.866 | 0.906 | 1.37 | 1.36 | 2.16 | 2.25 | 2.77 | 2.88 | –
LTGYGMS (also: biotinylated, site not given here, 7-amino acid peptide from a phage display library) [SDAB22110-2-D9] | – | – | – | – | – | – | 0.374 | 0.357 | 0.751 | 0.771 | 0.061 | 0.059 | 0.067 | 0.068 | 0.068 | 0.078 | 0.095 | 0.102 | 0.154 | 0.154 | –
SDAB22110-4-3-B02: anti-Fel d1 VHH clone, SEQ ID NO: 54 (protein) VHH: QVQLVESGGGLVQPGGSLRLSCVASGFTFSFYTMEWYRQAAGKQRELVAGLTASGTTHYADSAKGRFTISRDNAWNTVFLQMNGLKPEDTAVYYCNAYSGYRDYWGQGTQVTVSL | 12.200 | 35.68 | 33.78 | 35.55 | 33.78 | 35.82 | – | – | – | – | – | – | – | – | – | – | – | – | – | – | Tm ø (mean), first melting point (Tm1) [2, 18]: 42.43; Tm, first melting point (Tm1) [2, 19]: 42.52; Tonset ([2]; Replicate 2): 33.78; Tm, first melting point (Tm1) [2, 20]: 42.34; Tagg ([2]; anti-Fel d1 VHH): 40.93; Tm [2, 21]: 46.83
YPTWAYR (also: biotinylated, site not given here, 7-amino acid peptide from a phage display library) [SDAB22110-2-C3] | – | – | – | – | – | – | 0.346 | 0.376 | 0.684 | 0.748 | 0.058 | 0.057 | 0.065 | 0.065 | 0.072 | 0.066 | 0.104 | 0.102 | 0.162 | 0.191 | –
AVVSFYP (also: biotinylated, site not given here, 7-amino acid peptide from a phage display library) [SDAB22110-2-F1] | – | – | – | – | – | – | 0.479 | 0.516 | 0.938 | 0.805 | 0.079 | 0.066 | 0.073 | 0.075 | 0.076 | 0.073 | 0.131 | 0.125 | 0.221 | 0.209 | –
SDAB22110-4-3-H02: anti-Fel d1 VHH clone, SEQ ID NO: 57 (protein) VHH: QLQLVESGGGLVQPGGSLRLSCEASGFTFKYYTMSWYRQAPGKERELVATITNGDRTNYADSVKGRFTISRDNAKNTLYLQMNSLKPYDTAVYYCNRHLPLLQIWGQGTQVTVSS | 12.940 | 42.29 | 47.54 | 42.24 | 47.33 | 42.35 | – | – | – | – | – | – | – | – | – | – | – | – | – | – | Tm ø (mean), first melting point (Tm1) [2, 18]: 58.58; Tm, first melting point (Tm1) [2, 19]: 58.60; Tonset ([2]; Replicate 2): 47.76; Tm, first melting point (Tm1) [2, 20]: 58.57; Tagg ([2]; anti-Fel d1 VHH): 42.30; Tm ([2]; anti-Fel d1 VHH): 47.50
SDAB22110-4-3-G08: anti-Fel d1 VHH clone, SEQ ID NO: 56 (protein) VHH: DVQLVESGGGLVQPGGSLRLSCAASGFTFSLYYMSWYRQVPGKERELVATITSGTHATTYADSVKGRFTISRDNAKNTVSLQMNSLKREDTGVYYCKRTNAGQDPWGQGTQVTVSS | 2.215 | 31.74 | 27.92 | 31.71 | 27.93 | 31.77 | – | – | – | – | – | – | – | – | – | – | – | – | – | – | Tm ø (mean), first melting point (Tm1) [2, 17]: 37.85,; Tm ø (mean), second melting point (Tm2) [2, 18]: 47.65; Tm ø (mean), third melting point (Tm3) [2, 18]: 62.92; Tm, first melting point (Tm1) ([2]; Replicate 1): 37.77,; Tm, second melting point (Tm2) [2, 19]: 47.76; Tm, third melting point (Tm3) [2, 19]: 61.85; Tm, first melting point (Tm1) ([2]; Replicate 2): 37.92,; Tonset ([2]; Replicate 2): 27.92; Tm, second melting point (Tm2) [2, 20]: 47.53; Tm, third melting point (Tm3) [2, 20]: 62.92; Tagg ([2]; anti-Fel d1 VHH): 42.29; Tm [2, 21]: 58.58
GIHMALM (also: biotinylated, site not given here, 7-amino acid peptide from a phage display library) [SDAB22110-2-B2] | – | – | – | – | – | – | 0.275 | 0.289 | 0.536 | 0.537 | 0.07 | 0.061 | 0.078 | 0.066 | 0.083 | 0.071 | 0.089 | 0.089 | 0.132 | 0.136 | –
